Assay results: the supplement of paper PMC10567573

B1: NET1 (parent)
chain: RVRPLARVTSLANLISPVRNGAVR

Variants of: B1
Test: protein stability index of a GFP-peptide fusion (GPS, HEK-293T) (PSI 1-6); higher = more stable
Conditions: c terminus: a fixed tail appended
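Further: lentivirally expressed fusions sorted by FACS into six bins by GFP to DsRed ratio, PSI derived from sequencing read proportions per bin multiplied by bin number.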

Row | Variant | protein stability index
1 | RVRPLARVTSLANLISPSRNGAVR [V18S] | 4.17
2 | RVRPLARVTSLANLISPTRNGAVR [V18T] | 3.68
3 | RVRPLARVTSLANLISPDRNGAVR [V18D] | 4.03
4 | RVRPLARVTSLANLISPWRNGAVR [V18W] | 2.25
5 | RVRPLARVTSLANLISPLRNGAVR [V18L] | 2.94
6 | RVRPLARVTSLANLISPKRNGAVR [V18K] | 2.31
7 | RVRPLARVTSLANLISPMRNGAVR [V18M] | 3.07
8 | RVRPLARVTSLANLISPGRNGAVR [V18G] | 3.49
9 | RVRPLARVTSLANLISPPRNGAVR [V18P] | 3.12
10 | RVRPLARVTSLANLISPHRNGAVR [V18H] | 2.75
11 | RVRPLARVTSLANLISPIRNGAVR [V18I] | 2.83
12 | RVRPLARVTSLANLISPQRNGAVR [V18Q] | 3.63
13 | RVRPLARVTSLANLISPFRNGAVR [V18F] | 2.29
14 | RVRPLARVTSLANLISPRRNGAVR [V18R] | 3.15
15 | RVRPLARVTSLANLISPARNGAVR [V18A] | 3.03
16 | RVRPLARVTSLANLISPNRNGAVR [V18N] | 3.2
17 | RVRPLARVWSLANLISPVRNGAVR [T9W] | 3.24
18 | RVRPLARVYSLANLISPVRNGAVR [T9Y] | 3.12
19 | RVRPLARVVSLANLISPVRNGAVR [T9V] | 2.96
20 | RVRPLARVTSLANNISPVRNGAVR [L14N] | 3.84
21 | RVRPLARVTSLANHISPVRNGAVR [L14H] | 3.63
22 | RVRPLARVTSLANFISPVRNGAVR [L14F] | 2.65
23 | RVRPLARVTSLANWISPVRNGAVR [L14W] | 4.15
24 | RVRPLARVTSLANMISPVRNGAVR [L14M] | 2.61

Row | Variant | protein stability index
25 | RVRPLARVTSLANSISPVRNGAVR [L14S] | 3.15
26 | RVRPLARVTSLANKISPVRNGAVR [L14K] | 3.35
27 | RVRPLARVTSLANCISPVRNGAVR [L14C] | 1.66
28 | RVRPLARVTSLANEISPVRNGAVR [L14E] | 3.16
29 | RVRPLARVTSLANGISPVRNGAVR [L14G] | 3.24
30 | RVRPLARVTSLANRISPVRNGAVR [L14R] | 3.34
31 | RVRPLARVTSLANQISPVRNGAVR [L14Q] | 3.02
32 | RVRPLARVTSLANIISPVRNGAVR [L14I] | 3.03
33 | RVRPLARVTSLANPISPVRNGAVR [L14P] | 3.76
34 | RVRPLARVTSLANVISPVRNGAVR [L14V] | 2.72
35 | RVRPLARVTSLANYISPVRNGAVR [L14Y] | 3.17
36 | RVRPLARVTSLANAISPVRNGAVR [L14A] | 3.15
37 | RVRPLARVTSLANTISPVRNGAVR [L14T] | 3.67
38 | RVRPLARVTSLANDISPVRNGAVR [L14D] | 4.39
39 | RVRPLARVTKLANLISPVRNGAVR [S10K] | 2.41
40 | RVRPLARVTELANLISPVRNGAVR [S10E] | 3
41 | RVRPLARVTFLANLISPVRNGAVR [S10F] | 1.46
42 | RVRPLARVTYLANLISPVRNGAVR [S10Y] | 2.04
43 | RVRPLARVTILANLISPVRNGAVR [S10I] | 3.84
44 | RVRPLARVTWLANLISPVRNGAVR [S10W] | 1.99
45 | RVRPLARVTMLANLISPVRNGAVR [S10M] | 1.78
46 | RVRPLARVTGLANLISPVRNGAVR [S10G] | 2.52
47 | RVRPLARVTRLANLISPVRNGAVR [S10R] | 3.06
48 | RVRPLARVTPLANLISPVRNGAVR [S10P] | 3.01

Row | Variant | protein stability index
49 | RVRPLARVTLLANLISPVRNGAVR [S10L] | 1.43
50 | RVRPLARVTHLANLISPVRNGAVR [S10H] | 2.54
51 | RVRPLARVTDLANLISPVRNGAVR [S10D] | 2.54
52 | RVRPLARVTCLANLISPVRNGAVR [S10C] | 1.62
53 | RVRPLARVTNLANLISPVRNGAVR [S10N] | 3.08
54 | RVRPLARVTQLANLISPVRNGAVR [S10Q] | 3.42
55 | RVRPLARVTVLANLISPVRNGAVR [S10V] | 3.11
56 | RVRPLARVTALANLISPVRNGAVR [S10A] | 2.51
57 | RVRPLARVTSLANLISTVRNGAVR [P17T] | 2.8
58 | RVRPLARVTSLANLISDVRNGAVR [P17D] | 3.03
59 | RVRPLARVTSLANLISRVRNGAVR [P17R] | 2.24
60 | RVRPLARVTSLANLISFVRNGAVR [P17F] | 1.56
61 | RVRPLARVTSLANLISNVRNGAVR [P17N] | 2.81
62 | RVRPLARVTSLANLISIVRNGAVR [P17I] | 2.24
63 | RVRPLARVTSLANLISKVRNGAVR [P17K] | 3.09
64 | RVRPLARVTSLANLISAVRNGAVR [P17A] | 2.1
65 | RVRPLARVTSLANLISQVRNGAVR [P17Q] | 2.29
66 | RVRPLARVTSLANLISWVRNGAVR [P17W] | 1.89
67 | RVRPLARVTSLANLISYVRNGAVR [P17Y] | 2.07
68 | RVRPLARVTSLANLISVVRNGAVR [P17V] | 3.16
69 | RVRPLARVTSLANLISEVRNGAVR [P17E] | 2.4
70 | RVRPLARVTSLANLISGVRNGAVR [P17G] | 2.14
71 | RVRPLARVTSLANLISHVRNGAVR [P17H] | 2.15
72 | RVRPLARVTSLANLISSVRNGAVR [P17S] | 3.45

Row | Variant | protein stability index
73 | RVRPLARVTSLANLISMVRNGAVR [P17M] | 2.17
74 | RVRPLARVTSLANLISCVRNGAVR [P17C] | 3.96
75 | RVRPLARVTSLANLISLVRNGAVR [P17L] | 2.03
76 | RVRPLARVTSLANLHSPVRNGAVR [I15H] | 4.02
77 | RVRPLARVTSLANLFSPVRNGAVR [I15F] | 2.76
78 | RVRPLARVTSLANLVSPVRNGAVR [I15V] | 3.39
79 | RVRPLARVTSLANLYSPVRNGAVR [I15Y] | 3.27
80 | RVRPLARVTSLANLSSPVRNGAVR [I15S] | 3.63
81 | RVRPLARVTSLANLASPVRNGAVR [I15A] | 4.27
82 | RVRPLARVTSLANLGSPVRNGAVR [I15G] | 3.6
83 | RVRPLARVTSLANLNSPVRNGAVR [I15N] | 3.97
84 | RVRPLARVTSLANLKSPVRNGAVR [I15K] | 3.27
85 | RVRPLARVTSLANLQSPVRNGAVR [I15Q] | 3.66
86 | RVRPLARVTSLANLESPVRNGAVR [I15E] | 4.08
87 | RVRPLARVTSLANLPSPVRNGAVR [I15P] | 3.31
88 | RVRPLARVTSLANLLSPVRNGAVR [I15L] | 3.03
89 | RVRPLARVTSLANLWSPVRNGAVR [I15W] | 2.47
90 | RVRPLARVTSLANLMSPVRNGAVR [I15M] | 3.29
91 | RVRPLARVTSLANLRSPVRNGAVR [I15R] | 3.56
92 | RVRPLARVTSLANLCSPVRNGAVR [I15C] | 2.76
93 | RVRPLARVTSLANLTSPVRNGAVR [I15T] | 3.5
94 | RVRPLARVTSLANLDSPVRNGAVR [I15D] | 3.65
